B1: Protein PTHB1 (Homo sapiens), Q3SYG4 (parent)
chain: MSLFKARDWWSTILGDKEEFDQGCLCLANVDNSGNGQDKIIVGSFMGYLRIFSPHPAKTGDGAQAEDLLLEVDLRDPVLQVEVGKFVSGTEMLHLAVLHSRKLCVYSVSGTLGNVEHGNQCQMKLMYEHNLQRTACNMTYGSFGGVKGRDLICIQSMDGMLMVFEQESYAFGRFLPGFLLPGPLAYSSRTDSFLTVSSCQQVESYKYQVLAFATDADKRQETEQQKLGSGKRLVVDWTLNIGEQALDICIVSFNQSASSVFVLGERNFFCLKDNGQIRFMKKLDWSPSCFLPYCSVSEGTINTLIGNHNNMLHIYQDVTLKWATQLPHIPVAVRVGCLHDLKGVIVTLSDDGHLQCSYLGTDPSLFQAPNVQSRELNYDELDVEMKELQKIIKDVNKSQGVWPMTEREDDLNVSVVVSPNFDSVSQATDVEVGTDLVPSVTVKVTLQNRVILQKAKLSVYVQPPLELTCDQFTFEFMTPDLTRTVSFSVYLKRSYTPSELEGNAVVSYSRPTDRNPDGIPRVIQCKFRLPLKLICLPGQPSKTASHKITIDTNKSPVSLLSLFPGFASQSDDDQVNVMGFHFLGGARITVLASKTSQRYRIQSEQFEDLWLITNELILRLQEYFEKQGVKDFACSFSGSIPLQEYFELIDHHFELRINGEKLEELLSERAVQFRAIQRRLLARFKDKTPAPLQHLDTLLDGTYKQVIALADAVEENQGNLFQSFTRLKSATHLVILLIALWQKLSADQVAILEAAFLPLQEDTQELGWEETVDAAISHLLKTCLSKSSKEQALNLNSQLNIPKDTSQLKKHITLLCDRLSKGGRLCLSTDAAAPQTMVMPGGCTTIPESDLEERSVEQDSTELFTNHRHLTAETPRPEVSPLQGVSE
partner: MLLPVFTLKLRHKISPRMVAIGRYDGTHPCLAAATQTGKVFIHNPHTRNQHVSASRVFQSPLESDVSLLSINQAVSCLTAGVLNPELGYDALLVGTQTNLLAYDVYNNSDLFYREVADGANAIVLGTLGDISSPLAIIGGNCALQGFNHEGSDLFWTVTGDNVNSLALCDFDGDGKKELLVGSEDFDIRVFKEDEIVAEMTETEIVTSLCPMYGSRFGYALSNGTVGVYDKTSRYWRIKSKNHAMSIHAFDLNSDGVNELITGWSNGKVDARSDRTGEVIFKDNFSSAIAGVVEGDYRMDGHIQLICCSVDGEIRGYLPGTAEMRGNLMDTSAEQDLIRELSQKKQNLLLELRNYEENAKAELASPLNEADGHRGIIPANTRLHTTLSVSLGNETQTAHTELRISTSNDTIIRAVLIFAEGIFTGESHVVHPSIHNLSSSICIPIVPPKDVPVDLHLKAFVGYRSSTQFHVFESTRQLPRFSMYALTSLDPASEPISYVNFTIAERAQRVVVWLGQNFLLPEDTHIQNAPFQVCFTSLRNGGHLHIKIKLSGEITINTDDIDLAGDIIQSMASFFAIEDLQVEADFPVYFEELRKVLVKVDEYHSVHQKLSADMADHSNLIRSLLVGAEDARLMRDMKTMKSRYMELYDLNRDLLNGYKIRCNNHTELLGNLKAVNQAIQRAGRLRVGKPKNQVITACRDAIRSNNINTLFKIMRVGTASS

Variants of: B1
Settings: with bbs2_human BBS2, Q9BXC9

Variant | effect of a mutation on the interaction
I776E | with no effect
I776A | with no effect
I776K | with no effect
Q798E | with no effect
Q798K | with no effect
Q798A | with no effect
S777K | with no effect
S777E | with no effect
S777A | with no effect
K781A | with no effect
K781E | with no effect
L779K | with no effect
L779A | with no effect
L779E | with no effect
C783E | with no effect
C783A | with no effect
C783K | with no effect
K789E | with no effect
K789A | with no effect
T782K | with no effect
T782A | with no effect
T782E | with no effect
S787K | with no effect

Variant | effect of a mutation on the interaction
S787A | with no effect
S787E | with no effect
A792K | with no effect
A792E | with no effect
K786E | with no effect
K786A | with no effect
N796E | with no effect
N796A | with no effect
N796K | with no effect
E769A | with no effect
E769K | with no effect
S788A | with no effect
S788E | with no effect
S788K | with no effect
L799A | with no effect
L799K | with no effect
L799E | with no effect
L795A | with no effect
L795E | with no effect
L795K | with no effect
S797A | with no effect
S797K | with no effect
S797E | with no effect

Variant | effect of a mutation on the interaction
W768E | with no effect
W768K | with no effect
E790A | with no effect
E790K | with no effect
N794A | with no effect
N794E | with no effect
N794K | with no effect
A775E | with no effect
A775K | with no effect
A775T | disrupting interaction strength
T771E | with no effect
T771A | with no effect
T771K | with no effect
L793K | with no effect
L793A | with no effect
L793E | with no effect
V772A | disrupting interaction strength
V772K | with no effect
V772E | with no effect
Q791L | disrupting interaction strength
Q791S | disrupting interaction strength
Q791E | with no effect
Q791A | with no effect

Variant | effect of a mutation on the interaction
Q791K | with no effect
L784E | with no effect
L784A | with no effect
L784K | with no effect
L780K | with no effect
L780A | with no effect
L780E | with no effect
D773E | with no effect
D773K | with no effect
D773A | with no effect
E770K | with no effect
E770A | with no effect
H778A | with no effect
H778K | with no effect
H778E | with no effect
S785E | with no effect
S785K | with no effect
S785A | disrupting interaction strength
A774E | with no effect
A774K | with no effect

Now from value to variant:

effect of a mutation on the interaction | Variant
with no effect | S820K
with no effect | S820E
with no effect | S820A
with no effect | I812K
with no effect | I812E
with no effect | I812A
with no effect | T805A
with no effect | T805E
disrupting interaction strength | T805I
with no effect | T805K
with no effect | K803A
with no effect | K803E
with no effect | C826K
with no effect | C826E
with no effect | C826A
with no effect | H811A
with no effect | H811K
with no effect | H811E
with no effect | S806A
with no effect | S806E
with no effect | S806K
with no effect | P802K
with no effect | P802A

effect of a mutation on the interaction | Variant
with no effect | P802E
with no effect | G823E
with no effect | G823K
with no effect | G823A
with no effect | K809A
with no effect | K809E
with no effect | S828E
with no effect | S828K
with no effect | S828A
with no effect | K810A
with no effect | K810E
with no effect | Q807E
with no effect | Q807A
with no effect | Q807K
with no effect | T813E
with no effect | T813A
disrupting interaction strength | T813C
with no effect | T813K
with no effect | D804A
with no effect | D804K
disrupting interaction strength | D804F
with no effect | D804E
with no effect | I801K

effect of a mutation on the interaction | Variant
with no effect | I801E
with no effect | I801A
with no effect | L808A
disrupting interaction strength | L808E
with no effect | L808K
with no effect | L814K
with no effect | L814A
with no effect | L814E
with no effect | L815A
with no effect | L815E
with no effect | L815K
disrupting interaction strength | L815F
with no effect | D817E
with no effect | D817K
with no effect | D817A
with no effect | R824E
with no effect | R824K
with no effect | R824A
disrupting interaction strength | R824W
with no effect | N800K
with no effect | N800E
with no effect | N800A
with no effect | T829E

effect of a mutation on the interaction | Variant
with no effect | T829A
with no effect | T829K
with no effect | R818A
with no effect | R818E
with no effect | R818K
with no effect | L825E
with no effect | L825K
with no effect | L825A
with no effect | L819E
with no effect | L819K
with no effect | L819A
with no effect | L827K
disrupting interaction strength | L827A
with no effect | L827E
with no effect | K821E
with no effect | K821A
with no effect | G822A
with no effect | G822E
with no effect | G822K
disrupting interaction strength | G822R
with no effect | C816E
with no effect | C816K
with no effect | C816A

— IntAct's records for PubMed 29039417
